What was measured:
[1] = biological target: T1, human PERP with myc-His tag expressed in CHO/DG44 cells (PERP/CHO cell) (human, UniProt Q96FX8 1-193); test: flow cytometry on PERP/CHO cells against CHO/DG44 cells, 10 µg/ml
T1 construct: Four-pass membrane protein of 193 amino acids; On intact cells in FMAT and flow cytometry; as Triton X lysate in sandwich ELISA and immunoprecipitation; SDS-denatured in Western blotting; also called PERP/CHO cells; PERP-expressing cell line; not shown: C-terminal myc-His tag from pcDNA 3.1(-)/myc-His C
Experimental: As the cells, PERP/CHO cells and CHO/DG44 cells were used. The cells which were cultured for 2 to 3 days on an Iscove's Modified Dulbecco's medium (manufactured by Invitrogen) containing 10% fetal bovine serum and peeled off by 0.02% EDTA solution (manufactured by Nacalai Tesque) were washed with PBS and blocked for 20 minutes at ice temperature using BSA-PBS in order to avoid non-specific antibody adsorption. […] Again, washing was carried out 3 times using PBS by a centrifugation method, followed by suspension in PBS, and wavelength of 510 to 530 nm excited by laser beam 488 nm Ar was measured by a flow cytometer (manufactured by Beckman Coulter).

[2] = biological target: T1, human PERP with myc-His tag expressed …; test: flow cytometry on PERP/CHO cells, 5-fold dilutions from 20 µg/mL
Experimental: After washing with a buffer for FCM twice, a solution in which PE-labeled anti-human IgG (H+L) antibody (manufactured by Beckman Coulter) was diluted 50-fold with a buffer for FCM was added thereto at 50 μL/well. After reaction in ice shading from the light for 30 minutes, washing with a buffer for FCM was carried out 3 times and fluorescence intensity was measured using a flow cytometer.

binding result [1] | binding result [2] | Binder
binds |  | anti-PERP mouse antibody KM3411 (antibody, V domains shown, Used as hybridoma culture supernatant or purified antibody; also called monoclonal antibody KM3411; monoclonal antibody produced by hybridoma KM3411 (FERM BP-8643)) VH: DVQLQESGPGLVKPSQSLSLTCTVTGFSITTEYAWNWIRQFPGNRLEWMGYIGYTGRTNYSPSLKSRISITRDTSKNQFFLQLNSVTTEDTATYYCTRMDYWGQGTSVTVSS VL: QIVLIQSPVIMSASPGEKVTITCSASSSVSYMHWFQQKPGTSPKLWIYSTSNLASGVPARFSGSGSGTSYSLTISRMEAEDAATYYCQQRSSYPPTFGAGTKLELK
 | binds | anti-PERP chimeric antibody KM3481 (antibody, V domains shown, Human chimeric antibody: VH and VL of KM3411 with human CH and CL from the vector pKANTEX93 (WO 97/10354)) VH: DVQLQESGPGLVKPSQSLSLTCTVTGFSITTEYAWNWIRQFPGNRLEWMGYIGYTGRTNYSPSLKSRISITRDTSKNQFFLQLNSVTTEDTATYYCTRMDYWGQGTSVTVSS VL: QIVLIQSPVIMSASPGEKVTITCSASSSVSYMHWFQQKPGTSPKLWIYSTSNLASGVPARFSGSGSGTSYSLTISRMEAEDAATYYCQQRSSYPPTFGAGTKLELK

— patent US20090258007A1 (Kyowa Kirin, published 2009)
